Results published in patent publication US20240132578A1.

Key:
[1] = molecular target: HIV-1 Env of isolate MGRM-D-014 (clade D pseudovirus) (HIV-1); assay: cell-based or functional assay
[2] = molecular target: HIV-1 Env of isolate SF162 (HIV-1) (UniProt P19550); assay: cell-based or functional assay
[3] = molecular target: HIV-1 Env of isolate TRJ0.58 (Acute), clade B (HIV-1); assay: cell-based or functional assay
[4] = molecular target: HIV-1 envelope glycoprotein (Env) of isolate MGRM-C-004 (HIV-1); assay: cell-based or functional assay
[5] = molecular target: HIV-1 92RW020 Env (HIV-1); assay: cell-based or functional assay
[6] = molecular target: HIV-1 Env of isolate 93IN905 (HIV-1); assay: cell-based or functional assay
[7] = molecular target: HIV-1 Env of isolate 93MW959 (HIV-1); assay: cell-based or functional assay
[8] = molecular target: HIV-1 Env of isolate 97ZA012 (HIV-1); assay: cell-based or functional assay
[9] = molecular target: HIV-1 Env of isolate 98IN022 (HIV-1); assay: cell-based or functional assay
[10] = molecular target: HIV-1 Env of isolate MGRM-AE-004 (pseudovirus) (HIV-1); assay: cell-based or functional assay
[11] = molecular target: HIV-1 Env of isolate MGRM-AE-005 (pseudovirus) (HIV-1); assay: cell-based or functional assay
[12] = molecular target: HIV-1 Env of isolate MGRM-AE-006 (pseudovirus) (HIV-1); assay: cell-based or functional assay
[13] = molecular target: HIV-1 Env of isolate MGRM-Chronic-B-024 (HIV-1); assay: cell-based or functional assay
[14] = molecular target: HIV-1 Env of isolate PVO.4 (HIV-1); assay: cell-based or functional assay
[15] = molecular target: HIV-1 Env of isolate SC422661.8 (HIV-1); assay: cell-based or functional assay
[16] = molecular target: HIV-1 Env of isolate THR0.18 (HIV-1); assay: cell-based or functional assay
[17] = molecular target: HIV-1 Env of isolate TRJ04551.58 (HIV-1); assay: cell-based or functional assay
[18] = molecular target: HIV-1 Env of isolate TRO.11 (HIV-1); assay: cell-based or functional assay
[19] = molecular target: HIV-1 Env of isolate VLGCB3 (HIV-1); assay: cell-based or functional assay
[20] = molecular target: HIV-1 envelope glycoprotein (Env) of isolate 92RW008, subtype A (HIV-1); assay: cell-based or functional assay
[21] = molecular target: HIV-1 envelope glycoprotein (Env) of isolate MG RM-A-009, subtype A (HIV-1); assay: cell-based or functional assay
[22] = molecular target: HIV-1 envelope glycoprotein (Env) of isolate MG RM-A-010, subtype A (HIV-1); assay: cell-based or functional assay
[23] = molecular target: HIV-1 envelope glycoprotein (Env) of isolate MGRM-Chronic-B-004, on pseudovirus (HIV-1); assay: cell-based or functional assay
[24] = molecular target: JR-FL gp120 ΔV1/ΔV2 (HIV-1 JR-FL); assay: ELISA, antigen-coated wells, mAb titrated; EC50 by nonlinear regression
[25] = molecular target: WT JR-FL gp120 (HIV-1 JR-FL); assay: as above
[26] = molecular target: aMLV envelope; assay: cell-based or functional assay

Sequence of 1443_C16 (PG16) (TCN-116) (antibody) (VH): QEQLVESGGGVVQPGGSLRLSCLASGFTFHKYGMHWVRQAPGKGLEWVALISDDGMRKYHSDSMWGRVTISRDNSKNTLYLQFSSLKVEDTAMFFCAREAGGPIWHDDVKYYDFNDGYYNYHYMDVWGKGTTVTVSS
Sequence of 1443_C16 (PG16) (TCN-116) (antibody) (VL): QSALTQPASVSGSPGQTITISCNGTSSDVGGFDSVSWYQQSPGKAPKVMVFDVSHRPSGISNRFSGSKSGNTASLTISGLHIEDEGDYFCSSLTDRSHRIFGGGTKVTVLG

Substance	IC50, pseudovirus neutralization [1] [µg/mL]	IC50 (µg/ml), pseudovirus neutralization [2] [µg/mL]	IC50 (µg/ml), pseudovirus neutralization [3] [µg/mL]	IC50 (µg/ml), pseudovirus neutralization [4] [µg/mL]	IC50 (µg/mL), pseudovirus neutralization [10] [µg/mL]	IC50 (µg/mL), pseudovirus neutralization [11] [µg/mL]	IC50 (µg/mL), pseudovirus neutralization [12] [µg/mL]	IC50, pseudovirus neutralization [20] [µg/mL]	IC50, pseudovirus neutralization [21] [µg/mL]	IC50, pseudovirus neutralization [22] [µg/mL]	IC50, pseudovirus neutralization [23] [µg/mL]	EC50 [24] [µg/mL]	EC50 [25] [µg/mL]	other results
1443_C16 (PG16) (TCN-116) (antibody)	0.003	> 50	1.16	5.09										
1496_C09 (PG9) (TCN-109) (antibody)			0.43	1.18	0.009	0.282	0.063							IC50, pseudovirus neutralization [5]: 0.161 µg/mL; IC50 (µg/mL), pseudovirus neutralization [6]: 0.035 µg/mL; IC50 (µg/mL), pseudovirus neutralization [7]: 0.054 µg/mL; IC50 (µg/mL), pseudovirus neutralization [8]: 3.4 µg/mL; IC50 (µg/mL), pseudovirus neutralization [9]: 0.003 µg/mL; IC50 (µg/mL), pseudovirus neutralization [13]: 0.222 µg/mL; IC50 (µg/mL), pseudovirus neutralization [14]: 24.8 µg/mL; IC50 (µg/mL), pseudovirus neutralization [15]: 1.48 µg/mL; IC50 (µg/mL), pseudovirus neutralization [16]: 26.4 µg/mL; IC50 (µg/mL), pseudovirus neutralization [17]: 0.858 µg/mL; IC50 (µg/mL), pseudovirus neutralization [18]: 16.9 µg/mL; IC50 (µg/mL), pseudovirus neutralization [19]: 0.022 µg/mL
5145_B14 (PGT-127) (antibody)					> 50	> 50	> 50	0.012	0.013	0.017	0.018	0.7	0.1	
4838_L06 (PGT-121) (antibody)								0.003	0.006	2.44	0.009	0.2	0.2	IC50, pseudovirus neutralization [26]: > 10 µg/mL
b12 (antibody)	> 50	0.02	> 50	5.46										
4E10 (antibody)	3.24	4.28	11.9	24.2										
